Assay results taken from IntAct's records for PubMed 18997771.

B1: Vascular endothelial growth factor receptor 2 (Mus musculus), P35918 (parent)
chain: MESKALLAVALWFCVETRAASVGLPGDFLHPPKLSTQKDILTILANTTLQITCRGQRDLDWLWPNAQRDSEERVLVTECGGGDSIFCKTLTIPRVVGNDTGAYKCSYRDVDIASTVYVYVRDYRSPFIASVSDQHGIVYITENKNKTVVIPCRGSISNLNVSLCARYPEKRFVPDGNRISWDSEIGFTLPSYMISYAGMVFCEAKINDETYQSIMYIVVVVGYRIYDVILSPPHEIELSAGEKLVLNCTARTELNVGLDFTWHSPPSKSHHKKIVNRDVKPFPGTVAKMFLSTLTIESVTKSDQGEYTCVASSGRMIKRNRTFVRVHTKPFIAFGSGMKSLVEATVGSQVRIPVKYLSYPAPDIKWYRNGRPIESNYTMIVGDELTIMEVTERDAGNYTVILTNPISMEKQSHMVSLVVNVPPQIGEKALISPMDSYQYGTMQTLTCTVYANPPLHHIQWYWQLEEACSYRPGQTSPYACKEWRHVEDFQGGNKIEVTKNQYALIEGKNKTVSTLVIQAANVSALYKCEAINKAGRGERVISFHVIRGPEITVQPAAQPTEQESVSLLCTADRNTFENLTWYKLGSQATSVHMGESLTPVCKNLDALWKLNGTMFSNSTNDILIVAFQNASLQDQGDYVCSAQDKKTKKRHCLVKQLIILERMAPMITGNLENQTTTIGETIEVTCPASGNPTPHITWFKDNETLVEDSGIVLRDGNRNLTIRRVRKEDGGLYTCQACNVLGCARAETLFIIEGAQEKTNLEVIILVGTAVIAMFFWLLLVIVLRTVKRANEGELKTGYLSIVMDPDELPLDERCERLPYDASKWEFPRDRLKLGKPLGRGAFGQVIEADAFGIDKTATCKTVAVKMLKEGATHSEHRALMSELKILIHIGHHLNVVNLLGACTKPGGPLMVIVEFCKFGNLSTYLRGKRNEFVPYKSKGARFRQGKDYVGELSVDLKRRLDSITSSQSSASSGFVEEKSLSDVEEEEASEELYKDFLTLEHLICYSFQVAKGMEFLASRKCIHRDLAARNILLSEKNVVKICDFGLARDIYKDPDYVRKGDARLPLKWMAPETIFDRVYTIQSDVWSFGVLLWEIFSLGASPYPGVKIDEEFCRRLKEGTRMRAPDYTTPEMYQTMLDCWHEDPNQRPSFSELVEHLGNLLQANAQQDGKDYIVLPMSETLSMEEDSGLSLPTSPVSCMEEEEVCDPKFHYDNTAGISHYLQNSKRKSRPVSVKTFEDIPLEEPEVKVIPDDSQTDSGMVLASEELKTLEDRNKLSPSFGGMMPSKSRESVASEGSNQTSGYQSGYHSDDTDTTVYSSDEAGLLKMVDAAVHADSGTTLRSPPV

Variants of: B1
Conditions: with pgfrb_human PDGFRB

Variant | effect of a mutation on the interaction
Y1052F;Y1057F | disrupting interaction
